Results on 3 molecules are retold here after patent US20150098945A1 (Daiichi Sankyo, published 2015).

The assay concerns the target T1, human ROBO2 (pCI-hROBO2-transfected HEK293 cells) (human).
T1 chain: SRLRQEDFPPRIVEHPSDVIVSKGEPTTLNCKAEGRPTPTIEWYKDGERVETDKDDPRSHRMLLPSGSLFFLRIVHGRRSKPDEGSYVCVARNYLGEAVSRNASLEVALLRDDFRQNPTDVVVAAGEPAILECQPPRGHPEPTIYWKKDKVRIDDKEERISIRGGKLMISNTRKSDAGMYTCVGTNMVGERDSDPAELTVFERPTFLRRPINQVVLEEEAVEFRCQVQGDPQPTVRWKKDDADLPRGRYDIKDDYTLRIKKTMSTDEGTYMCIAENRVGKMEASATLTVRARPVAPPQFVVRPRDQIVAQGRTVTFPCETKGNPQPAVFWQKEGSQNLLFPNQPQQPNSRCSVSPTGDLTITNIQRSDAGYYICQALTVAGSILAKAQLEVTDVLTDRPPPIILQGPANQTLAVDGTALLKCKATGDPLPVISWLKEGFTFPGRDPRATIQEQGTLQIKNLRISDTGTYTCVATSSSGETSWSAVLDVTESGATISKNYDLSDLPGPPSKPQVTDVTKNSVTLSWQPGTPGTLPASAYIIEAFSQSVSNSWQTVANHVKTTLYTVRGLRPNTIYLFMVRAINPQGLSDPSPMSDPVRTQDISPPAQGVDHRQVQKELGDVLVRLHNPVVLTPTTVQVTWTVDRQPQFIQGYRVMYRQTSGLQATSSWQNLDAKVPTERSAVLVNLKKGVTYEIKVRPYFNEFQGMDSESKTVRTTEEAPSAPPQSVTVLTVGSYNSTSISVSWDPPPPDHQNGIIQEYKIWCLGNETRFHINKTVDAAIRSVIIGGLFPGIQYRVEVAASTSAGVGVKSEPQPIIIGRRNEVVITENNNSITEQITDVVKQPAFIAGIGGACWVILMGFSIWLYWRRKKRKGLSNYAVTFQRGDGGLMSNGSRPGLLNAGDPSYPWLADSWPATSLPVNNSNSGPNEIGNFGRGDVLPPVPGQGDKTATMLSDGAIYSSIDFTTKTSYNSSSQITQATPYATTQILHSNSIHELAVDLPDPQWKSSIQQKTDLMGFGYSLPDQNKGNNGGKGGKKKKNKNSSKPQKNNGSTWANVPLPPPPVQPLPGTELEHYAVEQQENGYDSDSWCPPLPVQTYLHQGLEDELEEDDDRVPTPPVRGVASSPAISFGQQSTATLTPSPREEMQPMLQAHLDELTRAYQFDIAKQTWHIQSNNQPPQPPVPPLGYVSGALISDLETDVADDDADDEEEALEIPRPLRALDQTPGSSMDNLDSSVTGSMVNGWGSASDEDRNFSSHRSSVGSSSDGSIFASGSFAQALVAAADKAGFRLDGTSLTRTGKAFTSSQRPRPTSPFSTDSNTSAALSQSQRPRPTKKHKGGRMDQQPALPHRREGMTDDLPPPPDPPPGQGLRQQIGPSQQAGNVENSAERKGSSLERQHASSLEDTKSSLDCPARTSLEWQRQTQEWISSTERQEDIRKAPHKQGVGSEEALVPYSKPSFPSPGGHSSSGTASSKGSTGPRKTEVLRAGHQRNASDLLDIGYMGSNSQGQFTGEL
As to the kind of experiment: flow cytometry (FC500), HEK293 cells transfected with pCI-hROBO2, FITC goat anti-human IgG Fc; control histogram IgG (human IgG). (In general: In flow cytometry, cells or beads pass a laser one at a time.)

B1: humanized MAb1 antibody H-1143 (antibody, human IgG2, kappa, V domains shown)
VH: EVQLVESGGGLVQPGGSLRLSCAASGFTFSTYAMSWVRQAPGKGLEWVATISQGGTYTYYPDSVKGRFTISRDNAKNTLYLQMNSLRAEDTAVYYCARLIYYDYLDYWGQGTLVTVSS
VL: DIVMTQSPLSLPVTLGEPASISCRSSQSLENENKNLYLNWYLQKPGQSPQLLIYRVSNRFSGVPDRFSGSGSGTDFTLKISRVEAEDVGVYYCLQVTHVPWTFGPGTKVDIKR
notes: Human IgG2 / kappa constant regions; also called hMAb1-H2-type heavy chain + hMAb1-L2-type light chain
B1: the binding result is given as “no binding (tested: 10 µg/mL)”.

B2: humanized MAb1 antibody H-2140 (antibody, human IgG2, kappa, V domains shown)
VH: EVQLVESGGGLVQPGGSLRLSCAASGFTFSTYAMSWVRQAPGKRLEWVATISQGGTYTYYPDSVKGRFTISRDNAKNTLYLQMNSLRAEDTAVYYCARLIYYDYLDYWGQGTLVTVSS
VL: DIVMTQSPLSLPVTLGEPASISCRSSQSLENSNGNTYLNWYLQKPGQSPQLLIYRVSNRFSGVPDRFSGSGSGTDFTLKISRVEAEDVGVYYCLQVTHVPWTFGPGTKVDIKR
notes: Human IgG2 / kappa constant regions; also called hMAb1-H4-type heavy chain + hMAb1-L1-type light chain
B2: the binding result is “no binding (tested: 10 µg/mL)”.

B3: humanized MAb1 antibody H-2143 (antibody, human IgG2, kappa, V domains shown)
VH: EVQLVESGGGLVQPGGSLRLSCAASGFTFSTYAMSWVRQAPGKRLEWVATISQGGTYTYYPDSVKGRFTISRDNAKNTLYLQMNSLRAEDTAVYYCARLIYYDYLDYWGQGTLVTVSS
VL: DIVMTQSPLSLPVTLGEPASISCRSSQSLENENKNLYLNWYLQKPGQSPQLLIYRVSNRFSGVPDRFSGSGSGTDFTLKISRVEAEDVGVYYCLQVTHVPWTFGPGTKVDIKR
notes: Human IgG2 / kappa constant regions; also called hMAb1-H4-type heavy chain + hMAb1-L2-type light chain
In the case of B3, the binding result was “no binding (tested: 10 µg/mL)”.
